Consider 1 molecule from paper PMC2926597.

For the data set, the target named is T1, KSRP KH23 (KH2-KH3 di-domain) (Homo sapiens, UniProt Q92945 233-418).
T1 sequence: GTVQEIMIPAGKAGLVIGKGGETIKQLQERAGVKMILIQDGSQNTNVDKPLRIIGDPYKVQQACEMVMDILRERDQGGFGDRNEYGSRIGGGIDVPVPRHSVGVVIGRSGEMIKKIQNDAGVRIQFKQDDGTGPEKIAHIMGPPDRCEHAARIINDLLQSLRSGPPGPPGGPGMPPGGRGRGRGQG
Kind of data set: CD titration.

B1: TNFa ARE AU-12mer (ssRNA)
RNA: UAUUUAUUAUUU
As usually defined, the Kd is the concentration at which binding is half-saturated. Lower therefore signals a tighter complex. For B1, the dissociation constant Kd is 1000 ± 100 nM.
